Assay results reported in patent US6509443.
Changes are numbered by the printed parent chain. Names and notes keep the numbering of the source.

T1: IGF-I L5A on phage (G1S-A70V background, gene III fusion) (human; bacteriophage M13)
T1 construct: monovalent on M13 phage; not shown: M13 gene III fragment (residues 249-406) and the junction after residue 70
T1 chain: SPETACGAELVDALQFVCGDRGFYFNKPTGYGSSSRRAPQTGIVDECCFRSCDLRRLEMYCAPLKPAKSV

T2: IGF-I T4A on phage (G1S-A70V background, gene III fusion) (human; bacteriophage M13)
T2 construct: monovalent on M13 phage; not shown: M13 gene III fragment (residues 249-406) and the junction after residue 70
T2 chain: T1 chain with T4A, A5L

T3: IGF-I F49A on phage (G1S-A70V background, gene III fusion) (human; bacteriophage M13)
T3 chain: T1 chain with A5L, F49A

B1: IGF-I E3A on phage (G1S-A70V background, gene III fusion) (ligand)
chain: T1 chain with E3A, A5L
notes: monovalent on M13 phage; not shown: M13 gene III fragment (residues 249-406) and the junction after residue 70
B2: human IGFBP-1 (other, UniProt P08833 26-259, looked up)
chain: APWQCAPCSAEKLALCPPVSASCSEVTRSAGCGCCPMCALPLGAACGVATARCARGLSCRALPGEQQPLHALTRGQGACVQESDASAPHAAEAGSPESPESTEITEEELLDNFHLMAPSEEDHSILWDAISTYDGSKALHVTNIKKWKEPCRIELYRVVESLAKAQETSGEEISKFYLPNCNKNGFYHSRQCETSMDGEAGLCWCVYPWNGKRIPGSPEIRGDPNCQIYFNVQN
notes: mature

Tests used:
[1] = molecular target: B2; test: competitive phage ELISA
Experimental: (§1) Phage particles were harvested and resuspended in PBS buffer as described in Lowman, H. B., "Phage Display of Peptide Libraries on Protein Scaffolds," in Cabilly, S. (ed.), *Combinatorial Peptide Library Protocols* (Humana Press Inc.: Totowa, N.J., 1998), pp. 249–264. Then phage concentrations were normalized to yield a maximal ELISA signal of 0.2–0.4 for each mutant (Lowman, in Cabilly, S. (ed.), supra). Threefold serial dilutions of soluble competitor were prepared on non-absorbent microtiter plates (Nunc, F, 96 wells) with binding buffer (0.5% TWEEN™ 20/PBS) containing phage at the previously-determined concentrations. […] After blocking, the plates containing immobilized target were washed with 0.05% TWEEN™/PBS buffer and subsequently incubated with 80 μl/well of the premixed phage-competitor solutions for 1 hour at room temperature. […] Numbers in Table I represent mean±standard deviation of individually assessed $IC50$ values.
(§2) At least two different clones of every mutant were tested.

[2] = molecular target: T4, recombinant human IGFBP-3 (human, UniProt P17936 28-291); test: competitive phage ELISA
T4 construct: mature
Experimental: as §1, §2

[3] = molecular target: T1, IGF-I L5A on phage (G1S-A70V …); test: competitive phage ELISA, soluble vs coated IGFBP-1
Experimental: as §1, §2

[4] = molecular target: T2, IGF-I T4A on phage (G1S-A70V …); test: competitive phage ELISA, soluble vs coated IGFBP-1
Experimental: as §1, §2

[5] = molecular target: T5, IGF-I V70A on phage (single mutant of G1S-A70V, gene III fusion) (human; bacteriophage M13); test: competitive phage ELISA, soluble vs coated IGFBP-1
T5 construct: monovalent on M13 phage; not shown: M13 gene III fragment (residues 249-406) and the junction after residue 70
Experimental: as §1, §2

[6] = molecular target: B1; test: competitive phage ELISA, soluble vs coated IGFBP-1
Experimental: as §1, §2

[7] = molecular target: T6, IGF-I S1G on phage (single mutant of G1S-A70V, gene III fusion) (human; bacteriophage M13, UniProt P05019 49-117); test: competitive phage ELISA, soluble vs coated IGFBP-1
T6 construct: monovalent on M13 phage; not shown: M13 gene III fragment (residues 249-406) and the junction after residue 70
Experimental: as §1, §2

[8] = molecular target: T7, IGF-I S69A on phage (G1S-A70V background, gene III fusion) (human; bacteriophage M13); test: competitive phage ELISA, soluble vs coated IGFBP-1
T7 construct: monovalent on M13 phage; not shown: M13 gene III fragment (residues 249-406) and the junction after residue 70
Experimental: as §1, §2

[9] = molecular target: T3, IGF-I F49A on phage (G1S-A70V …); test: phage ELISA on coated IGFBP-3, soluble IGFBP-1 as competitor (FIG. 3A); settings: remark: other sources report otherwise

T4 sequence (P17936 28-291): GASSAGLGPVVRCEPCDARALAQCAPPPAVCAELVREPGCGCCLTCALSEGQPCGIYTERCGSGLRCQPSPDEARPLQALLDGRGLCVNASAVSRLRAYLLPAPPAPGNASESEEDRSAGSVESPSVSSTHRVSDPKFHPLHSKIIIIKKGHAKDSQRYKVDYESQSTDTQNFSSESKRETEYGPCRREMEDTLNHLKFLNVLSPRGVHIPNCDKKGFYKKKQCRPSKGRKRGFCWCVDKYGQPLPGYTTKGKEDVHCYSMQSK

| Binder | binding result [1] | binding result [2] | IC50 [3] | IC50 [4] | IC50 [5] | IC50 [6] | IC50 [7] | IC50 [8] | shift of the binding curve against G1S-A70V phage [9] |
| --- | --- | --- | --- | --- | --- | --- | --- | --- | --- |
| B1 | binds | binds | – | – | – | – | – | – | – |
| B2 | – | – | 55.3 nM | 19.4 nM | 19.1 nM | 278 nM | 11.2 nM | 12.8 nM | > 100 fold |
